Blank lines part the entries; values can stand above or below the binder they belong to.
Legend:
Assay in all cases: SEC
Conditions in all cases: remark: other sources report otherwise
[1] = biological target: T1, 14-3-3 β 130nY (human), P31946
T1 chain: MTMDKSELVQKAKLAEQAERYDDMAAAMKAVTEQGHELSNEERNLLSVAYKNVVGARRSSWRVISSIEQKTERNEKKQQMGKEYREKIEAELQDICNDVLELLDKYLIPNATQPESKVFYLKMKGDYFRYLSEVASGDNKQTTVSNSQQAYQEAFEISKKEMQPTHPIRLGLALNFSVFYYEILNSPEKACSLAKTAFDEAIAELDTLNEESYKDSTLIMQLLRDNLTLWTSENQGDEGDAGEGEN

[2] = biological target: T2, 14-3-3 β 213nY (human), P31946
T2 chain: T1 chain

[3] = biological target: T3, 14-3-3 β wild-type (human), P31946
T3 chain: T1 chain

stoichiometry N [1]: 2
B1: 14-3-3 β 130nY, P31946 1-246 (natural protein)
chain: T1 chain
modifications: here or on the partner: 3-nitro-tyrosine at 130 (β-isoform numbering); 3-nitro-tyrosine at 130 (β-isoform numbering)

stoichiometry N [2]: 2
B2: 14-3-3 β 213nY, P31946 1-246 (natural protein)
chain: T1 chain
modifications: here or on the partner: 3-nitro-tyrosine at 213 (β-isoform numbering); 3-nitro-tyrosine at 213 (β-isoform numbering)

stoichiometry N [3]: 2
B3: 14-3-3 β wild-type, P31946 1-246 (natural protein)
chain: T1 chain

Source: paper doi:10.1101/2022.11.11.516191
